Test results published in patent EP2025683A1 (INSERM (Institut National de la Santé et de la Recherche …, dated 2009).
Positions count from the first letter of the chain named. Names and notes keep the numbering of the source.

T1: human prolactin receptor (human, UniProt P16471 25-622)
T1 sequence (looked up): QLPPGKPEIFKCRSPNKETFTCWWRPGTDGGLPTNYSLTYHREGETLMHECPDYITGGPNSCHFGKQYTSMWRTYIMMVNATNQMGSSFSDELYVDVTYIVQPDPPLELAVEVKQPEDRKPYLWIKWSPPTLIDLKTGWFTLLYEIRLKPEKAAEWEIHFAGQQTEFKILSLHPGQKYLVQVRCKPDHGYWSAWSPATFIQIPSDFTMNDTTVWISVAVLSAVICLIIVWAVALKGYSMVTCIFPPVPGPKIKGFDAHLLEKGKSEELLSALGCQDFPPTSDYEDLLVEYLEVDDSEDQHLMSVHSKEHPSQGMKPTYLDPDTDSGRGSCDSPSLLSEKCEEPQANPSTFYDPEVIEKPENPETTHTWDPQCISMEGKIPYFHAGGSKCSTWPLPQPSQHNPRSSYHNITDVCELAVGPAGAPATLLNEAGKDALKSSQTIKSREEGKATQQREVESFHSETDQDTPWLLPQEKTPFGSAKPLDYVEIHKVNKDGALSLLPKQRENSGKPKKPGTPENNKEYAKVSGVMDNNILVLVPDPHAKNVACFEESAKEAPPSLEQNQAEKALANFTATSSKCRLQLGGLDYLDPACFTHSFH

B1: G129D-hPRL (ligand, human, UniProt P01236 29-227, looked up)
chain: LPICPGGAARCQVTLRDLFDRAVVLSHYIHNLSSEMFSEFDKRYTHGRGFITKAINSCHTSSLATPEDKEQAQQMNQKDFLSLIVSILRSWNEPLYHLVTEVRGMQEAPEAILSKAVEIEEQTKRLLEDMELIVSQVHPETKENEIYPVWSGLPSLQMADEESRLSAYYNLLHCLRRDSHKIDNYLKLLKCRIIHNNNC
B2: G129Y-hPRL (ligand, human, UniProt P01236 29-227, looked up)
chain: B1 chain with D129Y
B3: G129L-hPRL (ligand, human, UniProt P01236 29-227, looked up)
chain: B1 chain with D129L
B4: G129V-hPRL (ligand, human, UniProt P01236 29-227, looked up)
chain: B1 chain with D129V
B5: G129N-hPRL (ligand, human, UniProt P01236 29-227, looked up)
chain: B1 chain with D129N
B6: G129F-hPRL (ligand, human, UniProt P01236 29-227, looked up)
chain: B1 chain with D129F
B7: G129R-hPRL (ligand, human, UniProt P01236 29-227, looked up)
chain: B1 chain with D129R
notes: mature
B8: G129P-hPRL (ligand, human, UniProt P01236 29-227, looked up)
chain: B1 chain with D129P

Molecular target: T1, human prolactin receptor
Assay: cell-based or functional assay

Molecule | Agonism Ba/F-LP cells (% of hPRL max activity) (% of hPRL max activity) | Antagonism HL-5 cells IC50 [nM] | Agonism Ba/F-LP cells (% of hPRL max activity)
Del1-9-G129R-hPRL (from UniProt P01236 29-227) (ligand) | 8.3 | 120 | 
B1 |  | 340 | 23.6 % of hPRL max activity
B2 |  | 190 | 24.3 % of hPRL max activity
B3 |  | 160 | 16.8 % of hPRL max activity
B4 |  | 110 | 14.2 % of hPRL max activity
B5 |  | 130 | 26.4 % of hPRL max activity
B6 |  | 110 | 19.1 % of hPRL max activity
B7 |  | 200 | 45.5 % of hPRL max activity
B8 |  | 340 | 90.4 % of hPRL max activity

Molecular target: T1, human prolactin receptor
Assay: displacement of [125I]-hPRL, homogenates of HEK 293 cells stably expressing hPRLR (HL-5 clone)

Molecule | IC50 [nM] | affinity relative to WT hPRL
B7 | 19 | ~1 order of magnitude lower than WT hPRL
